Measured values reported in patent US20140249083A1 (THERATECHNOLOGIES, published 2014).
*1 amine or outer side, *2 acyl side, *3 side chain or, on linkers, in order; H or OH if unused. Primed or numbered codes have the meaning given here. [ ]: non-standard residue; d: D form. The star is where a group is joined. βAsp = O=C(O)[C@H](CC(=O)[*:2])N[*:1]; Met(O) = CS(=O)CC[C@H](N)C(=O)O; Hexenoyl(3E) = CC/C=C/CC(=O)*; Asu′ = not defined here

T1: human GRF receptor (human, UniProt Q02643 23-423)
T1 sequence (looked up): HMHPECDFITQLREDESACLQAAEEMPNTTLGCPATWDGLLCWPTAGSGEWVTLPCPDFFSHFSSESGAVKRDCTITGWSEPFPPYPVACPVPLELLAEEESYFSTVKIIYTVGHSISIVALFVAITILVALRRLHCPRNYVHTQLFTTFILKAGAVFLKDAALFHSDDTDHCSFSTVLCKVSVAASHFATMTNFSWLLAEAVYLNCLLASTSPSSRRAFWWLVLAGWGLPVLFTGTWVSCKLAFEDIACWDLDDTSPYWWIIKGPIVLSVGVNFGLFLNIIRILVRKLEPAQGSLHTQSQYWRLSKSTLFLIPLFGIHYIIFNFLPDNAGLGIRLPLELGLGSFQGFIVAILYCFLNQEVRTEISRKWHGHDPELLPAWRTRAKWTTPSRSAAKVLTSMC


biological target: T1, human GRF receptor; test: cell-based or functional assay

Binder	EC50 (nM), alkaline phosphatase reporter gene assay	EMAX (%), alkaline phosphatase reporter gene assay	EC50 fold higher than TH9507, reporter gene assay	SNR (signal to noise ratio), alkaline phosphatase reporter gene assay
{Hexenoyl(3E)}-YA[βAsp]AIFTNSYRKVLGQLSARKLLQDIMSRQQGESNQERGARARL-NH2 [TH9507 beta-Asp3]	4.24 nM	116%		
{Hexenoyl(3E)}-YADAIFTNSYRKVLGQLSARKLLQDI[Met(O)]SRQQGESNQERGARARL-NH2 [N-Hex-hGRF[1-44]Met[O]27 amide]	0.16 nM			
{Hexenoyl(3E)}-YADAIFT[βAsp]SYRKVLGQLSARKLLQDIMSRQQGESNQERGARARL-NH2 [TH9507 beta-Asp8]	30 nM	120%	500 fold	26.9
{Hexenoyl(3E)}-YADAIFTDSYRKVLGQLSARKLLQDIMSRQQGESNQERGARARL-NH2 [TH9507 Asp8]	0.08 nM	114%		25.3

Second part, the binder after the results:

EC50 (nM), alkaline phosphatase reporter gene assay	EMAX (%), alkaline phosphatase reporter gene assay	EC50 fold higher than TH9507, reporter gene assay	SNR (signal to noise ratio), alkaline phosphatase reporter gene assay	Binder
0.2 nM	95.7%		21.3	{Hexenoyl(3E)}-YA[Asu′]AIFTNSYRKVLGQLSARKLLQDIMSRQQGESNQERGARARL-NH2 (reading uncertain) [TH9507 cyclic form at Asp^3]
0.06 nM				{Hexenoyl(3E)}-YADAIFTNSYRKVLGQLSARKLLQDIMSRQQGESNQERGARARL-NH2 [[trans-3-hexenoyl]hGHRH (1-44) amide]
